3 molecules from doi:10.1101/2021.05.10.443400 (bioRxiv, 2021) can be followed below.

Assay [1] deals with T1, Human MutSα (MSH2-MSH6 complex), purified (human, UniProt P43246 1-934; P52701 1-1360). Kind of assay: pull-down.
For assay [2], the target named is T1, Human MutSα (MSH2-MSH6 complex), …. Kind of assay: co-IP.

T1 sequence (P43246 whole entry, chain 1 of 2): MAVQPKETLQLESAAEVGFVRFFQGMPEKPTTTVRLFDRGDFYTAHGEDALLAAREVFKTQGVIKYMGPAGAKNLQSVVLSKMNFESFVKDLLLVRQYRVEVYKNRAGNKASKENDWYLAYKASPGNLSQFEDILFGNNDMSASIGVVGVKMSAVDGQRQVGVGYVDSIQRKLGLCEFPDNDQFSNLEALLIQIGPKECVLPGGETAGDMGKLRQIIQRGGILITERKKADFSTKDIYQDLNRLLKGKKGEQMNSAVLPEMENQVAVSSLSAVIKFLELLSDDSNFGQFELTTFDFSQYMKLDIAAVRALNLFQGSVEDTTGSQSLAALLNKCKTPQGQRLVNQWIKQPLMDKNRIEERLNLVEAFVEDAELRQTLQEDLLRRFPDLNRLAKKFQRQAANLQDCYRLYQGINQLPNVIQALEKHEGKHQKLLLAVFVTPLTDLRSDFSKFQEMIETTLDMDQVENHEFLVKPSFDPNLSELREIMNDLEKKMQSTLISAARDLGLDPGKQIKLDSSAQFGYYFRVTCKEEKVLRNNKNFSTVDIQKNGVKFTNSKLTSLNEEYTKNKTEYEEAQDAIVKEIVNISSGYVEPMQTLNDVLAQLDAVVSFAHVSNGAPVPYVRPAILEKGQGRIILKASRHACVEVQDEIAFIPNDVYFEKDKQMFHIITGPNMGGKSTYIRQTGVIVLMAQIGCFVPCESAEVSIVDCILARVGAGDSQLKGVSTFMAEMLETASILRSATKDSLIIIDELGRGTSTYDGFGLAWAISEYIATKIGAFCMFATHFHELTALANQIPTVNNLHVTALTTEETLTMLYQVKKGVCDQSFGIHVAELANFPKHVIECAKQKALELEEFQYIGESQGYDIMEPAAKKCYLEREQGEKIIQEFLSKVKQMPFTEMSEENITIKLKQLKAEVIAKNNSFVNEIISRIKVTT
T1 sequence (P52701 whole entry, chain 2 of 2): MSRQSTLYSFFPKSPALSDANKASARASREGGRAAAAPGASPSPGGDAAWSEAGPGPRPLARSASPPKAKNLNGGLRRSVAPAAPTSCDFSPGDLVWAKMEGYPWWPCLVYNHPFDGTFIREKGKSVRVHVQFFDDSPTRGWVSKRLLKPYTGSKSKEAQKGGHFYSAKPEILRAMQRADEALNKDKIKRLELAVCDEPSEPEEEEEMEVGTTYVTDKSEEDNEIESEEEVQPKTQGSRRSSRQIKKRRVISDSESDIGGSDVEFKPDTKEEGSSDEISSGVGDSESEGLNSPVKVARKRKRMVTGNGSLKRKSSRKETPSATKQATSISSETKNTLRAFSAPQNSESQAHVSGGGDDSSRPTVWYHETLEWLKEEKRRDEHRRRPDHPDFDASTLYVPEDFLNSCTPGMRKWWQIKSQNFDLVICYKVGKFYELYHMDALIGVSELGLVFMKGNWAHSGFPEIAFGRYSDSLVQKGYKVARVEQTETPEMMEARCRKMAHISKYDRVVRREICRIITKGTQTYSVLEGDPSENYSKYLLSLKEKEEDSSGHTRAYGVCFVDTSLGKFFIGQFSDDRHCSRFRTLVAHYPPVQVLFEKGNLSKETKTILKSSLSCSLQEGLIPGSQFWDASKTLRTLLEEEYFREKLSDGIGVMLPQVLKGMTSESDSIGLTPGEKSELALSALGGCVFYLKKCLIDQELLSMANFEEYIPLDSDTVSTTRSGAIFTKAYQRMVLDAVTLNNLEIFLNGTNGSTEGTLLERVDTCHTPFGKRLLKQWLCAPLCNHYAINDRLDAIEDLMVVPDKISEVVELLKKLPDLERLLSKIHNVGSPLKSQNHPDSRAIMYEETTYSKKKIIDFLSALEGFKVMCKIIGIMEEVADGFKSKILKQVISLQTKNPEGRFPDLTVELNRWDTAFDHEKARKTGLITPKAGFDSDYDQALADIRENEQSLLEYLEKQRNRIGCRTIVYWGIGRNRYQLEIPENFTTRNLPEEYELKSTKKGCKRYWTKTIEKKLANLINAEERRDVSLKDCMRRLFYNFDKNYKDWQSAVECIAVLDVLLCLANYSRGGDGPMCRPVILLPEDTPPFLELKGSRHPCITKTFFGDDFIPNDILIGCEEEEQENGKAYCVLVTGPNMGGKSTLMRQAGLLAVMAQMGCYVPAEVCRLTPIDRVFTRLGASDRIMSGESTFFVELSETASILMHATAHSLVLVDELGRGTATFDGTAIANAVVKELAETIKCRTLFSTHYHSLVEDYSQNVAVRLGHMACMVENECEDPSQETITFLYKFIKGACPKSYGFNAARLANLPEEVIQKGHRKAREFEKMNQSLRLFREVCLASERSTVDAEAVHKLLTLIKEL

B1: GST-Flag-Orc6 middle TFIIB (TFIIB-B) domain (94-187) (domain or fragment, human, UniProt Q9Y5N6 94-187, looked up)
chain: SNIGIRDLAVQFSCIEAVNMASKILKSYESSLPQTQQVDLDLSRPLFTSAALLSACKILKLKVDKNKMVATSGVKKAIFDRLCKQLEKIGQQVD
Take B1: the binding result in assay [1] was “binds”.

B2: Human GST-Flag-Orc6, full length (natural protein, UniProt Q9Y5N6 1-252, looked up)
chain: MGSELIGRLAPRLGLAEPDMLRKAEEYLRLSRVKCVGLSARTTETSSAVMCLDLAASWMKCPLDRAYLIKLSGLNKETYQSCLKSFECLLGLNSNIGIRDLAVQFSCIEAVNMASKILKSYESSLPQTQQVDLDLSRPLFTSAALLSACKILKLKVDKNKMVATSGVKKAIFDRLCKQLEKIGQQVDREPGDVATPPRKRKKIVVEAPAKEMEKVEEMPHKPQKDEDLTQDYEEWKRKILENAASAQKATAE
For B2, the binding result in assay [1] is reported as “binds”.

B3: Human Flag-MutLα (MLH1-PMS2 complex), purified (complex)
chain 1: MSFVAGVIRRLDETVVNRIAAGEVIQRPANAIKEMIENCLDAKSTSIQVIVKEGGLKLIQIQDNGTGIRKEDLDIVCERFTTSKLQSFEDLASISTYGFRGEALASISHVAHVTITTKTADGKCAYRASYSDGKLKAPPKPCAGNQGTQITVEDLFYNIATRRKALKNPSEEYGKILEVVGRYSVHNAGISFSVKKQGETVADVRTLPNASTVDNIRSIFGNAVSRELIEIGCEDKTLAFKMNGYISNANYSVKKCIFLLFINHRLVESTSLRKAIETVYAAYLPKNTHPFLYLSLEISPQNVDVNVHPTKHEVHFLHEESILERVQQHIESKLLGSNSSRMYFTQTLLPGLAGPSGEMVKSTTSLTSSSTSGSSDKVYAHQMVRTDSREQKLDAFLQPLSKPLSSQPQAIVTEDKTDISSGRARQQDEEMLELPAPAEVAAKNQSLEGDTTKGTSEMSEKRGPTSSNPRKRHREDSDVEMVEDDSRKEMTAACTPRRRIINLTSVLSLQEEINEQGHEVLREMLHNHSFVGCVNPQWALAQHQTKLYLLNTTKLSEELFYQILIYDFANFGVLRLSEPAPLFDLAMLALDSPESGWTEEDGPKEGLAEYIVEFLKKKAEMLADYFSLEIDEEGNLIGLPLLIDNYVPPLEGLPIFILRLATEVNWDEEKECFESLSKECAMFYSIRKQYISEESTLSGQQSEVPGSIPNSWKWTVEHIVYKALRSHILPPKHFTEDGNILQLANLPDLYKVFERC
chain 2: MERAESSSTEPAKAIKPIDRKSVHQICSGQVVLSLSTAVKELVENSLDAGATNIDLKLKDYGVDLIEVSDNGCGVEEENFEGLTLKHHTSKIQEFADLTQVETFGFRGEALSSLCALSDVTISTCHASAKVGTRLMFDHNGKIIQKTPYPRPRGTTVSVQQLFSTLPVRHKEFQRNIKKEYAKMVQVLHAYCIISAGIRVSCTNQLGQGKRQPVVCTGGSPSIKENIGSVFGQKQLQSLIPFVQLPPSDSVCEEYGLSCSDALHNLFYISGFISQCTHGVGRSSTDRQFFFINRRPCDPAKVCRLVNEVYHMYNRHQYPFVVLNISVDSECVDINVTPDKRQILLQEEKLLLAVLKTSLIGMFDSDVNKLNVSQQPLLDVEGNLIKMHAADLEKPMVEKQDQSPSLRTGEEKKDVSISRLREAFSLRHTTENKPHSPKTPEPRRSPLGQKRGMLSSSTSGAISDKGVLRPQKEAVSSSHGPSDPTDRAEVEKDSGHGSTSVDSEGFSIPDTGSHCSSEYAASSPGDRGSQEHVDSQEKAPKTDDSFSDVDCHSNQEDTGCKFRVLPQPTNLATPNTKRFKKEEILSSSDICQKLVNTQDMSASQVDVAVKINKKVVPLDFSMSSLAKRIKQLHHEAQQSEGEQNYRKFRAKICPGENQAAEDELRKEISKTMFAEMEIIGQFNLGFIITKLNEDIFIVDQHATDEKYNFEMLQQHTVLQGQRLIAPQTLNLTAVNEAVLIENLEIFRKNGFDFVIDENAPVTERAKLISLPTSKNWTFGPQDVDELIFMLSDSPGVMCRPSRVKQMFASRACRKSVMIGTALNTSEMKKLITHMGEMDHPWNCPHGRPTMRHIANLGVISQN
As for B3, in assay [2], the binding result is on record as “binds”.
